Holding throughout (test): ITC
The target of experiment [1] is TobE N-terminal docking domain (TobE ^NDD) (Methylorubrum extorquens AM1).
Experiment [2] deals with TobE ^NDD-ACP didomain (Methylorubrum extorquens AM1).
The target in experiment [3] is TobC C-terminal docking domain (TobC ^CDD) (Methylorubrum extorquens AM1).

One may read the Kd as the constant that tells how readily two partners part at equilibrium. The low end stands for tighter binding, the high end for weaker binding. For orientation: stoichiometry N means the number of molecules, sites or subunits per partner or assembly. In experiment [1], “TobC C-terminal docking domain (TobC ^CDD) (domain or fragment)” registered a Kd of 4 µM and a stoichiometry N of 0.8. For the same substance, the Kd in experiment [2] worked out at 5.7 µM.

As for TobC ^CDD R2271A (domain or fragment), the Kd in experiment [1] turned out to be 769 µM.

On to “TobE N-terminal docking domain (TobE ^NDD) (domain or fragment)”, for which, in experiment [3], the Kd was 3.2 µM and the stoichiometry N is 1.

The values are drawn from publication PMC11221535.
